The conditions of the data set: whole UniProt chain shown; for Tm / unfolding enthalpy (van 't Hoff): Thermal; for denaturant m value / denaturant midpoint (higher = more stable) / unfolding free energy: 25 °C, Urea.
The mark [1] stands for this setting: Kitasatospora aureofaciens, pH 2, CD, MOPS 30 mM, transition: 2, reversible: Yes.
Where [2] appears, read: Kitasatospora aureofaciens, pH 7, CD, MOPS 30 mM, reversible: yes (>95%).
Where [3] appears, read: Kitasatospora aureofaciens, pH 7, CD, MOPS 30 mM, transition: 2, reversible: Yes.
Where [4] appears, read: Aspergillus oryzae (strain ATCC 42149 / RIB 40), pH 2.7, CD, glycine 30 mM, reversible: yes (>95%).
The mark [5] stands for this setting: Aspergillus oryzae (strain ATCC 42149 / RIB 40), pH 2.7, Fluorescence, glycine 30 mM, transition: 2, reversible: Yes.
[6] abbreviates: Aspergillus oryzae (strain ATCC 42149 / RIB 40), pH 7, CD, MOPS 30 mM, reversible: yes (>95%).
[7] abbreviates: Aspergillus oryzae (strain ATCC 42149 / RIB 40), pH 7, Fluorescence, MOPS 30 mM, transition: 2, reversible: Yes.
[8] abbreviates: Aspergillus oryzae (strain ATCC 42149 / RIB 40), pH 7, CD, MOPS 30 mM, transition: 2, reversible: Yes.

Consider two proteins from FireProtDB (doi:10.1021/bi9815243).

B1: Guanyl-specific ribonuclease Sa wild type, P05798 (protein)
chain: DVSGTVCLSALPPEATDTLNLIASDGPFPYSQDGVVFQNRESVLPTQSYGYYHEYTVITPGARTRGTRRIITGEATQEDYYTGDHYATFSLIDQTC
Broadly, the Tm is the temperature at the midpoint of the melting transition. Consider B1, for which the midpoint of thermal melting (Tm) turned out to be 28 °C under setting [1], 48.4 °C under setting [2] and 48.4 °C under setting [3]. In addition, the “unfolding enthalpy (van 't Hoff)” value by setting is: under setting [1], 58.8 kcal/mol; under setting [2], 92.4 kcal/mol; under setting [3], 92.4 kcal/mol.

B2: Guanyl-specific ribonuclease T1 wild type, P00651 (protein)
chain: MMYSKLLTLTTLLLPTALALPSLVERACDYTCGSNCYSSSDVSTAQAAGYQLHEDGETVGSNSYPHKYNNYEGFDFSVSSPYYEWPILSSGDVYSGGSPGADRVVFNENNQLAGVITHTGASGNNFVECT
Regarding B2, under setting [4], the denaturant m value turned out to be 1.64 kcal/mol/M, the “denaturant midpoint (higher = more stable)” value (“denaturant midpoint” below) was found to be 3.75 M and the unfolding free energy worked out at 6.13 kcal/mol. Moreover, under setting [5], the denaturant m value came out at 1.64 kcal/mol/M, the “denaturant midpoint” value is 3.75 M and the unfolding free energy was 6.13 kcal/mol. Also, under setting [6], the denaturant m value amounted to 1.17 kcal/mol/M, the “denaturant midpoint” value was 5.2 M, the unfolding free energy is 6.09 kcal/mol and the Tm stood at 50.8 °C. Besides, the “unfolding enthalpy (van 't Hoff)” value under setting [6] came to 96.6 kcal/mol. Under setting [7], the denaturant m value turned out to be 1.17 kcal/mol/M, the “denaturant midpoint” value came to 5.2 M and the unfolding free energy was found to be 6.09 kcal/mol. Under setting [8], the Tm worked out at 50.8 °C and the “unfolding enthalpy (van 't Hoff)” value came out at 96.6 kcal/mol.
